Laboratory results as given in US20220040297A1 (Chugai, published 2022).
Numbering of substitutions follows the chain as printed.

B1: GLS3000 R54P (antibody, name in Kabat numbering, V domains shown)
VH: QVQLVESGGGVVQPGRSLRLSCAASGFTFSNAWMHWVRQAPGKGLEWVAQIKAKSNNYATYYAESVKGRFTISRDDSKNSLYLQMNSLKTEDTAVYYCRYVHYGAYYGVDAWGQGTTVTVSS
VL: DIVMTQSPLSLPVTPGEPASISCRSSQSLVHSNRNTYLHWYQQKPGQAPRLLIYKVSNPFSGVPDRFSGSGSGTDFTLKISRVEAEDVGVYYCGQGTQVPYTFGQGTKLEIK
notes: one-arm format as m2
B2: GLS3000 R54W (antibody, name in Kabat numbering, V domains shown)
VH: B1 VH
VL: B1 VL with P59W
notes: one-arm format as m2
B3: GLS3000 S26D (antibody, name in Kabat numbering, V domains shown)
VH: B1 VH
VL: B1 VL with S26D, P59R
notes: one-arm format as m2
B4: GLS3000 S27eM (antibody, name in Kabat numbering, V domains shown)
VH: B1 VH
VL: B1 VL with S32M, P59R
notes: one-arm format as m2
B5: GLS3000 S27eY (antibody, name in Kabat numbering, V domains shown)
VH: B1 VH
VL: B1 VL with S32Y, P59R
notes: one-arm format as m2
B6: GLS3000 S27aY (antibody, name in Kabat numbering, V domains shown)
VH: B1 VH
VL: B1 VL with S28Y, P59R
notes: one-arm format as m2
B7: GLS3000 S27eP (antibody, name in Kabat numbering, V domains shown)
VH: B1 VH
VL: B1 VL with S32P, P59R
notes: one-arm format as m2
B8: GLS3000 S52D (antibody, name in Kabat numbering, V domains shown)
VH: B1 VH
VL: B1 VL with S57D, P59R
notes: one-arm format as m2
B9: GLS3000 S27eQ (antibody, name in Kabat numbering, V domains shown)
VH: B1 VH
VL: B1 VL with S32Q, P59R
notes: one-arm format as m2
B10: GLS3000 S27eT (antibody, name in Kabat numbering, V domains shown)
VH: B1 VH
VL: B1 VL with S32T, P59R
notes: one-arm format as m2
B11: GLS3000 R54T (antibody, name in Kabat numbering, V domains shown)
VH: B1 VH
VL: B1 VL with P59T
notes: one-arm format as m2
B12: GLS3000 R54Q (antibody, name in Kabat numbering, V domains shown)
VH: B1 VH
VL: B1 VL with P59Q
notes: one-arm format as m2
B13: GLS3000 R54S (antibody, name in Kabat numbering, V domains shown)
VH: B1 VH
VL: B1 VL with P59S
notes: one-arm format as m2
B14: GLS3000 S27aN (antibody, name in Kabat numbering, V domains shown)
VH: B1 VH
VL: B1 VL with S28N, P59R
notes: one-arm format as m2
B15: GLS3000 S27aG (antibody, name in Kabat numbering, V domains shown)
VH: B1 VH
VL: B1 VL with S28G, P59R
notes: one-arm format as m2
B16: GLS3000 S26E (antibody, name in Kabat numbering, V domains shown)
VH: B1 VH
VL: B1 VL with S26E, P59R
notes: one-arm format as m2
B17: GLS3000 S25E (antibody, name in Kabat numbering, V domains shown)
VH: B1 VH
VL: B1 VL with S25E, P59R
notes: one-arm format as m2
B18: GLS3000 S27eE (antibody, name in Kabat numbering, V domains shown)
VH: B1 VH
VL: B1 VL with S32E, P59R
notes: one-arm format as m2
B19: GLS3000 S52Q (antibody, name in Kabat numbering, V domains shown)
VH: B1 VH
VL: B1 VL with S57Q, P59R
notes: one-arm format as m2
B20: GLS3000 S25T (antibody, name in Kabat numbering, V domains shown)
VH: B1 VH
VL: B1 VL with S25T, P59R
notes: one-arm format as m2
B21: GLS3000 R77S (antibody, name in Kabat numbering, V domains shown)
VH: B1 VH
VL: B1 VL with P59R, R82S
notes: one-arm format as m2
B22: GLS3000 S26P (antibody, name in Kabat numbering, V domains shown)
VH: B1 VH
VL: B1 VL with S26P, P59R
notes: one-arm format as m2
B23: GLS3000 S27eD (antibody, name in Kabat numbering, V domains shown)
VH: B1 VH
VL: B1 VL with S32D, P59R
notes: one-arm format as m2
B24: GLS3000 S25A (antibody, name in Kabat numbering, V domains shown)
VH: B1 VH
VL: B1 VL with S25A, P59R
notes: one-arm format as m2
B25: GLS3000 S52A (antibody, name in Kabat numbering, V domains shown)
VH: B1 VH
VL: B1 VL with S57A, P59R
notes: one-arm format as m2
B26: GLS3000 S25V (antibody, name in Kabat numbering, V domains shown)
VH: B1 VH
VL: B1 VL with S25V, P59R
notes: one-arm format as m2
B27: GLS3000 S27eH (antibody, name in Kabat numbering, V domains shown)
VH: B1 VH
VL: B1 VL with S32H, P59R
notes: one-arm format as m2
B28: GLS3000 S27eF (antibody, name in Kabat numbering, V domains shown)
VH: B1 VH
VL: B1 VL with S32F, P59R
notes: one-arm format as m2
B29: GLS3000 S27eL (antibody, name in Kabat numbering, V domains shown)
VH: B1 VH
VL: B1 VL with S32L, P59R
notes: one-arm format as m2
B30: GLS3000 S27aI (antibody, name in Kabat numbering, V domains shown)
VH: B1 VH
VL: B1 VL with S28I, P59R
notes: one-arm format as m2
B31: GLS3000 S27eW (antibody, name in Kabat numbering, V domains shown)
VH: B1 VH
VL: B1 VL with S32W, P59R
notes: one-arm format as m2
B32: GLS3000 S27eN (antibody, name in Kabat numbering, V domains shown)
VH: B1 VH
VL: B1 VL with S32N, P59R
notes: one-arm format as m2
B33: GLS3000 S27eG (antibody, name in Kabat numbering, V domains shown)
VH: B1 VH
VL: B1 VL with S32G, P59R
notes: one-arm format as m2
B34: GLS3000 S27eK (antibody, name in Kabat numbering, V domains shown)
VH: B1 VH
VL: B1 VL with S32K, P59R
notes: one-arm format as m2
B35: GLS3000 S52P (antibody, name in Kabat numbering, V domains shown)
VH: B1 VH
VL: B1 VL with S57P, P59R
notes: one-arm format as m2
B36: GLS3000 S27aP (antibody, name in Kabat numbering, V domains shown)
VH: B1 VH
VL: B1 VL with S28P, P59R
notes: one-arm format as m2
B37: GLS3000 S25D (antibody, name in Kabat numbering, V domains shown)
VH: B1 VH
VL: B1 VL with S25D, P59R
notes: one-arm format as m2
B38: GLS3000 S27eR (antibody, name in Kabat numbering, V domains shown)
VH: B1 VH
VL: B1 VL with S32R, P59R
notes: one-arm format as m2
B39: GLS3000 S25M (antibody, name in Kabat numbering, V domains shown)
VH: B1 VH
VL: B1 VL with S25M, P59R
notes: one-arm format as m2
B40: GLS3000 S27eI (antibody, name in Kabat numbering, V domains shown)
VH: B1 VH
VL: B1 VL with S32I, P59R
notes: one-arm format as m2
B41: GLS3000 S27aE (antibody, name in Kabat numbering, V domains shown)
VH: B1 VH
VL: B1 VL with S28E, P59R
notes: one-arm format as m2
B42: GLS3000 S25L (antibody, name in Kabat numbering, V domains shown)
VH: B1 VH
VL: B1 VL with S25L, P59R
notes: one-arm format as m2
B43: GLS3000 S25I (antibody, name in Kabat numbering, V domains shown)
VH: B1 VH
VL: B1 VL with S25I, P59R
notes: one-arm format as m2
B44: GLS3000 S27aD (antibody, name in Kabat numbering, V domains shown)
VH: B1 VH
VL: B1 VL with S28D, P59R
notes: one-arm format as m2
B45: GLS3000 S27eV (antibody, name in Kabat numbering, V domains shown)
VH: B1 VH
VL: B1 VL with S32V, P59R
notes: one-arm format as m2
B46: GLS3000 S25P (antibody, name in Kabat numbering, V domains shown)
VH: B1 VH
VL: B1 VL with S25P, P59R
notes: one-arm format as m2

Target: CD3ε homodimer protein (human, UniProt P07766 23-126, limits assumed)
Assay: SPR, immobilized CD3ε homodimer;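 note: biacore T200 surface plasmon resonance at 25 °C, antibody variants flowed as analytes over amine-coupled CD3ε homodimer on a CM4 chip, variant binding amount divided by that of GLS3000 antibody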

CD3ε homodimer protein, sequence (P07766 23-126 limits assumed): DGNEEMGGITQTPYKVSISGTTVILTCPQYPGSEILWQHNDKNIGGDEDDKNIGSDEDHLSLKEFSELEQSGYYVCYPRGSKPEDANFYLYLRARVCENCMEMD

Row | Binder | ratio of amounts bound (vs GLS3000)
1 | B1 | 0.84
2 | B2 | 0.78
3 | B3 | 0.86
4 | B4 | 1.23
5 | B5 | 1.2
6 | B6 | 1.1
7 | B7 | 1.26
8 | B8 | 0.63
9 | B9 | 1.1
10 | B10 | 0.97
11 | B11 | 0.65
12 | B12 | 0.68
13 | B13 | 0.79
14 | B14 | 1.1
15 | B15 | 1.03
16 | B16 | 0.74
17 | B17 | 0.21
18 | B18 | 0.76
19 | B19 | 1.05
20 | B20 | 0.83
21 | B21 | 0.92
22 | B22 | 0.78
23 | B23 | 0.69

Row | Binder | ratio of amounts bound (vs GLS3000)
24 | B24 | 0.92
25 | B25 | 0.93
26 | B26 | 0.73
27 | B27 | 1.23
28 | B28 | 1.32
29 | B29 | 1.17
30 | B30 | 1
31 | B31 | 1.55
32 | B32 | 1.16
33 | B33 | 1.04
34 | B34 | 1.59
35 | B35 | 0.33
36 | B36 | 0.99
37 | B37 | 0.48
38 | B38 | 1.58
39 | B39 | 0.31
40 | B40 | 1.07
41 | B41 | 0.81
42 | B42 | 0.24
43 | B43 | 0.53
44 | B44 | 0.79
45 | B45 | 1.08
46 | B46 | 1.01
